Measurements from the supplement of paper PMC9112550, “Optimization of the antimicrobial peptide Bac7 by deep mutational scanning” (BMC Biology, 2022).

Each sequence was assayed on Escherichia coli TOP10 (assay: shrunken log2 fold change of peptide-encoding DNA abundance (4.5 h post-induction vs induction); higher = less antimicrobial activity (less host growth inhibition)). Conditions: time post-induction: 4.5 h; library: site-saturation at positions 5, 18, 19, 20.
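Further: peptides expressed intracellularly from a pBAD plasmid library in pooled LB shake-flask culture, induced with 0.3% L-arabinose, DNA abundance read by NGS, three biological replicates, DESeq2 with apeglm shrinkage.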

Sequence | shrunken log2 fold change
RRIRCRPPRLPRPRPRPSSGPRP | -0.011
RRIRWRPPRLPRPRPRPNLNPRP | -0.401
RRIRHRPPRLPRPRPRPIFPPRP | 0.033
RRIRSRPPRLPRPRPRPRDSPRP | -0.158
RRIRFRPPRLPRPRPRPPVDPRP | 0.41
RRIRTRPPRLPRPRPRPCPTPRP | 0.0552
RRIRCRPPRLPRPRPRPFQGPRP | 0.203
RRIRIRPPRLPRPRPRPHKKPRP | -0.0912
RRIRPRPPRLPRPRPRPMLPPRP | 0.0406
RRIRPRPPRLPRPRPRPAADPRP | 0.282
RRIRLRPPRLPRPRPRPLSMPRP | -0.163
RRIRTRPPRLPRPRPRPICSPRP | -0.0969
RRIRTRPPRLPRPRPRPSWTPRP | -0.468
RRIRSRPPRLPRPRPRPKEWPRP | -0.0193
RRIRVRPPRLPRPRPRPEDGPRP | -0.263
RRIRARPPRLPRPRPRPQHNPRP | -0.26
RRIRNRPPRLPRPRPRPRIHPRP | -0.184
RRIRNRPPRLPRPRPRPERAPRP | 0.362
RRIRYRPPRLPRPRPRPASTPRP | -0.0914
RRIRIRPPRLPRPRPRPMQHPRP | -0.289
RRIRMRPPRLPRPRPRPLIVPRP | 1.71
RRIRKRPPRLPRPRPRPMTEPRP | 0.0103

Sequence | shrunken log2 fold change
RRIRFRPPRLPRPRPRPRHYPRP | -0.477
RRIRWRPPRLPRPRPRPKYFPRP | -0.302
RRIRKRPPRLPRPRPRPKSKPRP | 0.45
RRIRARPPRLPRPRPRPYCIPRP | -0.151
RRIRKRPPRLPRPRPRPQEYPRP | -0.0576
RRIRERPPRLPRPRPRPLGEPRP | 0.0918
RRIRTRPPRLPRPRPRPAPQPRP | 0.0544
RRIRMRPPRLPRPRPRPWEDPRP | -0.0122
RRIRGRPPRLPRPRPRPFMRPRP | 0.567
RRIRARPPRLPRPRPRPTQLPRP | 0.611
RRIRQRPPRLPRPRPRPILTPRP | -0.955
RRIRTRPPRLPRPRPRPCPRPRP | -0.13
RRIRFRPPRLPRPRPRPNYVPRP | -0.492
RRIRDRPPRLPRPRPRPCHPPRP | -0.0697
RRIRHRPPRLPRPRPRPCVYPRP | -0.62
RRIRTRPPRLPRPRPRPYYVPRP | -1.13
RRIRSRPPRLPRPRPRPYEEPRP | -0.932
RRIRQRPPRLPRPRPRPDQCPRP | -0.0972
RRIRWRPPRLPRPRPRPGIFPRP | 0.0995
RRIRKRPPRLPRPRPRPKQMPRP | 0.471
RRIRTRPPRLPRPRPRPCTPPRP | -0.214
RRIRHRPPRLPRPRPRPKHEPRP | -0.156

Sequence | shrunken log2 fold change
RRIRSRPPRLPRPRPRPAKIPRP | -0.0773
RRIRTRPPRLPRPRPRPPHMPRP | -0.101
RRIRVRPPRLPRPRPRPEEKPRP | -0.0261
RRIRSRPPRLPRPRPRPDGYPRP | -0.164
RRIRCRPPRLPRPRPRPMTIPRP | -0.128
RRIRARPPRLPRPRPRPKNIPRP | -0.127
RRIRFRPPRLPRPRPRPTPPPRP | 0.797
RRIRARPPRLPRPRPRPYHKPRP | -0.193
RRIRDRPPRLPRPRPRPFRNPRP | -0.0013
RRIRARPPRLPRPRPRPPFAPRP | 0.87
RRIRRRPPRLPRPRPRPDQQPRP | 0.0145
RRIRCRPPRLPRPRPRPYATPRP | -0.294
RRIRIRPPRLPRPRPRPSSRPRP | -0.538
RRIRFRPPRLPRPRPRPLDLPRP | -0.366
RRIRHRPPRLPRPRPRPKEKPRP | 0.0444
RRIRHRPPRLPRPRPRPAAAPRP | 0.443
RRIRRRPPRLPRPRPRPNACPRP | -0.00291
RRIRGRPPRLPRPRPRPIMLPRP | 2.36
RRIRIRPPRLPRPRPRPFMLPRP | -0.407
RRIRSRPPRLPRPRPRPSPCPRP | -0.04
RRIRYRPPRLPRPRPRPRWLPRP | -0.109
RRIRFRPPRLPRPRPRPTRSPRP | 0.189

Sequence | shrunken log2 fold change
RRIRSRPPRLPRPRPRPFIWPRP | -0.297
RRIRTRPPRLPRPRPRPPIKPRP | -0.368
RRIRGRPPRLPRPRPRPAWKPRP | 0.122
RRIRDRPPRLPRPRPRPKVLPRP | -0.041
RRIRHRPPRLPRPRPRPYPGPRP | -0.216
RRIRLRPPRLPRPRPRPMFQPRP | -1.11
RRIRYRPPRLPRPRPRPFHGPRP | 0.0221
RRIRIRPPRLPRPRPRPWPQPRP | 0.0274
RRIRIRPPRLPRPRPRPTENPRP | 0.0227
RRIRLRPPRLPRPRPRPCNWPRP | 0.0532
RRIRIRPPRLPRPRPRPPTIPRP | -0.904
RRIRSRPPRLPRPRPRPGFEPRP | 0.418
RRIRNRPPRLPRPRPRPDERPRP | 0.0408
RRIRHRPPRLPRPRPRPDQCPRP | -0.000823
RRIRCRPPRLPRPRPRPQCKPRP | -0.619
RRIRFRPPRLPRPRPRPMLRPRP | 0.0268
RRIRWRPPRLPRPRPRPPNWPRP | 0.603
RRIRERPPRLPRPRPRPGDMPRP | -0.116
RRIRLRPPRLPRPRPRPNEWPRP | -0.227
RRIRSRPPRLPRPRPRPFRTPRP | -0.318
RRIRKRPPRLPRPRPRPGWPPRP | 0.424
RRIRTRPPRLPRPRPRPEDMPRP | -0.00975

Sequence | shrunken log2 fold change
RRIRLRPPRLPRPRPRPTRMPRP | 0.513
RRIRLRPPRLPRPRPRPMCGPRP | 0.0137
RRIRQRPPRLPRPRPRPPRAPRP | 0.552
RRIRIRPPRLPRPRPRPAQHPRP | -0.0384
RRIRTRPPRLPRPRPRPVWRPRP | 0.302
RRIRLRPPRLPRPRPRPQAWPRP | 0.126
RRIRKRPPRLPRPRPRPCWPPRP | 0.0513
RRIRHRPPRLPRPRPRPKITPRP | -0.913
RRIRPRPPRLPRPRPRPGDDPRP | -0.292
RRIRNRPPRLPRPRPRPIHKPRP | -0.377
RRIRQRPPRLPRPRPRPESDPRP | 0.319
RRIRGRPPRLPRPRPRPDMGPRP | 0.269
RRIRYRPPRLPRPRPRPGRHPRP | -0.203
RRIRKRPPRLPRPRPRPTENPRP | 0.143
RRIRARPPRLPRPRPRPIGPPRP | 0.537
RRIRFRPPRLPRPRPRPGARPRP | 0.355
RRIRCRPPRLPRPRPRPWGMPRP | -0.16
RRIRNRPPRLPRPRPRPVRKPRP | 0.128
RRIRDRPPRLPRPRPRPIWFPRP | -0.192
RRIRCRPPRLPRPRPRPYWLPRP | -0.669
RRIRLRPPRLPRPRPRPKYYPRP | -1.1
